The text below walks through data of patent publication US20250213713A1, “Antibody-Drug Conjugates Targeting uPARAP Comprising Exatecan Derivatives” (ADCENDO APS, priority 2022, published 2025).

One may read the IC50 as the concentration that inhibits the measured activity by half. A word on the Kd: it is the concentration at which binding is half-saturated. For orientation: koff means the first-order rate constant of dissociation. Low readings indicate a long-lived complex, high ones a short-lived complex. As a reminder, the kon is the rate constant with which the complex forms.

For assay [1], the system named is JIMT-1 cells. The experiment in a line: Inhibition of in vitro proliferation of tumor cells (CTG), JIMT-1. The following applies: read-out: JIMT-1 IC50; Table 8, 6 days of culture. The format is cell-based. The procedure:
(§1) To test the inhibitory activity of the pharmaceutical compounds on the in vitro proliferation of NCI-N87, JIMT-1 and MBA-MB-231 tumor cells. The cells were treated with the compounds at different concentrations in vitro, and after 6 days of culture, the proliferation of cells was detected using the CTG (CellTiter-Glo® Luminescent Cell Viability Assay, Promega, Cat. No. G7558) reagent, and the in vitro activity of the compounds was evaluated according to the IC50 value. […]
(§2) There were 8 concentrations in total for the small molecule compounds: 300 nM, 100 nM, 30 nM, 10 nM, 3 nM, 1 nM, 0.3 nM, and 0.1 nM. • 5. Sample adding: the prepared samples to be detected at different concentrations were added to the culture plate, and two duplicate wells were set for each sample. […] Plate reading: the 96-well cell culture plate was taken out, placed in a microplate reader, and measured for the chemiluminescence using the microplate reader.
(§3) To test the inhibitory activity of the pharmaceutical compounds on the in vitro proliferation of NCI-N87, JIMT-1 and MBA-MB-231 tumor cells. The cells were treated with compounds at different concentrations in vitro, and after 6 days of culture, the proliferation of cells was detected using CTG (CellTiter-Glo® Luminescent Cell Viability Assay, Promega, Cat. No. G7558) reagents, and the in vitro activity of the compounds was evaluated according to the IC50 value. • 1. […]

The subject of assay [2] is NCI-N87 cells. Nature of the assay: Inhibition of in vitro proliferation of tumor cells (CTG), NCI-N87. Type of assay: cell-based. Particulars: read-out: NCI-N87 IC50; Table 8, 6 days of culture. The procedure: as §1, §2, §3
Assay [3] has as its target T1, soluble full-length uPARAP (UniProt Q9UBG0 31-1414, limits assumed).
T1 construct: also called CD280
T1 sequence (looked up): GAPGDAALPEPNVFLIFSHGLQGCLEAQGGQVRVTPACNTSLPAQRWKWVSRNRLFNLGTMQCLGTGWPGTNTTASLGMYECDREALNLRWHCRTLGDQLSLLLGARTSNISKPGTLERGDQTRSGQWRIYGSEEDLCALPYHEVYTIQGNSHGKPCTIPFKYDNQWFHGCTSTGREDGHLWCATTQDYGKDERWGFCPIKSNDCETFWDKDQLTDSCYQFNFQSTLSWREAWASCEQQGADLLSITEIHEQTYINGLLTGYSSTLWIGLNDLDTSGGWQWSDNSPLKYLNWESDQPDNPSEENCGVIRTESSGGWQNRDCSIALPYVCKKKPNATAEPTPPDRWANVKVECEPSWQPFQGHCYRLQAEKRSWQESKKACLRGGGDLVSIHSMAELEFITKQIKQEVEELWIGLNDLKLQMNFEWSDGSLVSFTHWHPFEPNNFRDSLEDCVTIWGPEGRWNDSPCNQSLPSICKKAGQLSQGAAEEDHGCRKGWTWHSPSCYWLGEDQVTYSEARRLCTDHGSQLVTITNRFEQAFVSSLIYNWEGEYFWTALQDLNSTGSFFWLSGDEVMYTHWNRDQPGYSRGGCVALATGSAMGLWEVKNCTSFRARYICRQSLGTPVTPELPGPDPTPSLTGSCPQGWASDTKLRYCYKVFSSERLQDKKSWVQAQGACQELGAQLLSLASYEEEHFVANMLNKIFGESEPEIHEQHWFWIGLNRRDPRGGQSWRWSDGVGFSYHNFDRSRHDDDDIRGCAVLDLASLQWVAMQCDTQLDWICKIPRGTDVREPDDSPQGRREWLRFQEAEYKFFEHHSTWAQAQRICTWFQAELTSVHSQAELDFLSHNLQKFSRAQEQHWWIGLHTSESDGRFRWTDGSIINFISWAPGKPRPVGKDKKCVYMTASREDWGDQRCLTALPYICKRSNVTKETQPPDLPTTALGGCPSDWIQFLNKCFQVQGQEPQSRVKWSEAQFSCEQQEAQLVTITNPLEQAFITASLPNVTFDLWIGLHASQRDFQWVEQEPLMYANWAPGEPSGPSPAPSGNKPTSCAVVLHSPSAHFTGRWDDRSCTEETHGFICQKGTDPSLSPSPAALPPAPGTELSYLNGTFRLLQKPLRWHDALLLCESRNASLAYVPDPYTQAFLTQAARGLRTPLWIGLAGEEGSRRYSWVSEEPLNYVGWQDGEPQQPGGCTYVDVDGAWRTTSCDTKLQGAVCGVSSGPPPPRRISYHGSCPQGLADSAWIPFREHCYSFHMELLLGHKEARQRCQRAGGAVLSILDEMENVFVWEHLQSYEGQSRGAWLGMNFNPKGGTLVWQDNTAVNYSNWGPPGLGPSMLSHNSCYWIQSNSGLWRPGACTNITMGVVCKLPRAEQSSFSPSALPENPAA
Nature of the assay: SPR (Biacore 2000), antibody captured on anti-human Fc CM5 chip, soluble full-length uPARAP as analyte, 25 C, Langmuir 1:1 global fit. The procedure: (§4) SPR analyses were performed for determination of the affinity of the obtained antibodies towards uPARAP. These analyses were performed using a Biacore 2000 instrument (Biaffin GmbH, Kassel, Germany) using a CM5 sensor chip with an anti-human Fc capture surface for antibody binding. The analysis temperature was set at 25° C. Binding of antibody onto this surface was followed by passing soluble full-length uPARAP over the chip, and the resulting association and dissociation rates were derived from the resulting binding curves. For kinetic interaction analyses, a flowrate of 30 μL/min was used and the analysis buffer consisted of 10 mM HEPES pH 7.4, 150 mM NaCl, 3 mM EDTA, 0.05% Tween 20.
(§5) LC4HC3 and LC0HC0 were analyzed by SPR as described in Materials and Methods above. In particular, the binding kinetics of LC4HC3 were compared with those of LC0HC0 (Table 5).

In assay [4] the target is T1, soluble full-length uPARAP. Nature of the assay: SPR (Biacore 2000), ratio of KD values against LC0HC0. The procedure:
as §4, §5
In general terms: Surface plasmon resonance follows binding to a sensor surface in real time, without labels.

Turning to `CC[C@@]1(O)C(=O)OCc2c1cc1n(c2=O)Cc2c-1nc1cc(F)c(C)c3c1c2[C@@H](NC(=O)CCS)CC3` [P-III-2], the IC50 in assay [1] and in assay [2] was 108 nM in each case.
Consider `CC[C@@]1(O)C(=O)OCc2c1cc1n(c2=O)Cc2c-1nc1cc(F)c(C)c3c1c2[C@@H](NC(=O)CC(C)(C)O)CC3` [P-III-21], for which the results for the IC50 in assay [1] and in assay [2] were 2.87 nM and 4.75 nM, respectively.

B1: 980.2 LC4HC3 (humanized 9b7 antibody) (antibody, human IgG1, kappa, V domains shown)
VH: QVQLVQSGAEVKKPGASVKVSCKASGYIFIDYGMHWVRQAPGQRLEWMGSINTKSGVSTYAAEFKGRVTIYSDTSASTAYMELSSLRSEDTAVYFCARPPYYSQYGSYWGQGTLVTVSS
VL: EIVMTQSPDSLAVSLGERATINCKASQNVDTYVVWYQQKPGQPPQPLIYSASSRFSGVPDRFSGSGSGTDFTLTISSLQAEDVAIYYCQQYHNSPLTFGGGTKVEIKR
notes: Complete IgG1 kappa, expressed in CHO cells; captured by anti-human Fc in the SPR assay
In assay [3], B1 showed a Kd of 0.5 nM, a koff of 4.04e-05 s⁻¹ and a kon of 81300 M⁻¹ s⁻¹. Moreover, the “fold higher ligand affinity than LC0HC0” value in assay [4] is about 1.7 fold.

B2: 980.2 LC0HC0 (chimeric antibody: variable domains of murine 9b7 fused to human IgG1 kappa constant regions) (antibody, V domains shown)
VH: QVHLVQSGPELKKPGETVKISCKASGYIFIDYGMHWVKQAPGKGLKWMGSINTKSGVSTYAAEFKGRFAFSLETSASTAYLQINNLKNEDTATYFCARPPYYSQYGSYWGQGTLVTVSA
VL: DIVMTQSQKFMSTSVGDRVSVTCKASQNVDTYVVWYQQKPGQSPKPLIYSASSRFSGVPDRFTGTGSGTDFTLTINNVQSEDLAEYFCQQYHNSPLTFGGGTKLEIKR
notes: Complete IgG1 kappa, expressed in CHO cells; captured by anti-human Fc in the SPR assay; also called parental antibody
With B2, in assay [3], the Kd was 0.86 nM, the koff turned out to be 5.33e-05 s⁻¹ and the kon was determined as 62300 M⁻¹ s⁻¹.
